Results on eleven molecules are retold here after patent publication US20190010228A1 (Genentech, published 2019).

The target of assay [1] is T1, human LRP5 domains E3-E4 (E644-Q1263 of SEQ ID NO: 42) (human, UniProt O75197 644-1263).
T1 construct: Soluble fragment made in-house; It was biotinylated for phage sorting; also called LRP5-E3/E4; LRP5E3/E4
T1 sequence: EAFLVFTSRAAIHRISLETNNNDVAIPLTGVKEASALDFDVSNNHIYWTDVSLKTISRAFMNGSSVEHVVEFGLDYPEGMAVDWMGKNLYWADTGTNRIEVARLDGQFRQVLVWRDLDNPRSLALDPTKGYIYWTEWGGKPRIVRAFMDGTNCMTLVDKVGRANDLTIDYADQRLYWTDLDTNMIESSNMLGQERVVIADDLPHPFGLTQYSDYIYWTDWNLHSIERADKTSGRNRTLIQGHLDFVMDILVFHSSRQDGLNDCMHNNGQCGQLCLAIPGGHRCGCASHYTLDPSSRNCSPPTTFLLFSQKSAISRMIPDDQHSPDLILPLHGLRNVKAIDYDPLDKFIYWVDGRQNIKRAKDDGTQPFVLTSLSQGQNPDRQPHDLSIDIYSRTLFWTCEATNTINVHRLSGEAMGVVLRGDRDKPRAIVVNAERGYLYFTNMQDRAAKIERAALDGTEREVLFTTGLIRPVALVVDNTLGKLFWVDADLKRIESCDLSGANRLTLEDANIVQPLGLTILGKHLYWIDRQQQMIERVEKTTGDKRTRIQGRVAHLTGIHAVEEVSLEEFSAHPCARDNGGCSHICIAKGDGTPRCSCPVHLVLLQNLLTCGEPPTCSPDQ
Kind of assay: SPR, BIAcore T100, IgG captured by anti-human Fc, LRP5E3/E4 as analyte, 25 C. On the procedure: Binding affinities of anti-LRP5E3/E4 IgGs were measured by Surface Plasmon Resonance (SPR) using a BIAcore™-T100 instrument. Anti-LRP5E3/E4 human IgGs were captured by mouse anti-human Fc antibody (GE Healthcare, cat# BR-1008-39) coated on CM5 biosensor chips to achieve approximately 200 response units (RU). For kinetics measurements, two-fold serial dilutions ([…]) of human LRP5E3/E4 (GNE) were injected in HBS-P buffer (10 mM HEPES, pH 7.4, 0.15 M NaCl, 0.005% surfactant P20) at 25° C. with a flow rate of 30 μl/min. Association rates (kₒₙ) and dissociation rates (koff) were calculated using a simple one-to-one Langmuir binding model (BIAcore Evaluation Software version 2.0.2). The equilibrium dissociation constant (KD) was calculated as the ratio koff/kₒₙ.

For assay [2], the target named is LRP5 (transfected into reporter cells). Kind of assay: cell-based or functional assay.

B1: YW629.51 (antibody, human IgG1, V domains shown)
VH: EVQLVESGGGLVQPGGSLRLSCAASGFTFSSYAMHWVRQAPGKGLEWVSRISSNGGSTYYADSVKGRFTISRDNSKNTLYLQMNSLRAEDTAVYYCARWIPQSYPFASYKSGFDYWGQGTLVTVSS
VL: DIQMTQSPSSLSASVGDRVTITCRASQGISSYLAWYQQKPGKAPKLLIYDASSLESGVPSRFSGSGSGTDFTLTISSLQPEDFATYYCQQYYSYPFTFGQGTKVEIKR
notes: also called P6C.51; bivalent LRP5 antibody (P6C.51)
On to B1, for which, in assay [1], binding was characterised by a dissociation constant (Kd) of 13 nM, the koff is 0.00309 s⁻¹ and the on-rate constant (kon) stood at 237000 M⁻¹ s⁻¹. Also, the “TOPFlash luciferase reporter, recombinant Norrin (cells transfected with LRP5 and FZD-4)” value in assay [2] was over 2 fold.

B2: YW629.42 (antibody, human IgG1, V domains shown)
VH: EVQLVESGGGLVQPGGSLRLSCAASGFTFSSYAMSWVRQAPGKGLEWVGAISSSGSSTYYADSVKGRFTISRDNSKNTLYLQMNSLRAEDTAVYYCARYYRYAPYRSLGMDVWGQGTLVTVSS
VL: DIQMTQSPSSLSASVGDRVTITCRASQGISSYLAWYQQKPGKAPKLLIYAASSLQSGVPSRFSGSGSGTDFTLTISSLQPEDFATYYCQQYYSYPFTFGQGTKVEIKR
notes: also called P6C.42
In assay [1], B2 came in with a Kd of 51.6 nM, a koff of 0.00116 s⁻¹ and a kon of 22600 M⁻¹ s⁻¹.

B3: YW629.51.80 (antibody, human IgG1, V domains shown)
VH: EVQLVESGGGLVQPGGSLRLSCAASGFTFSSYAMHWVRQAPGKGLEWVSRISSNGGSTYYADSVKGRFTISRDNSKNTLYLQMNSLRAEDTAVYYCARWIPQSYPFASYKSGFDYWGQGTLVTVSS
VL: DIQMTQSPSSLSASVGDRVTITCRASQAIYSYLAWYQQKPGKAPKLLIYDASSLESGVPSRFSGSGSGTDFTLTISSLQPEDFATYYCQQYYSYPFTFGQGTKVEIKR
notes: also called P6C.51.80
In assay [1], B3 gave a Kd of 0.268 nM, a koff of 0.000104 s⁻¹ and a kon of 387000 M⁻¹ s⁻¹.

B4: YW629.42.57 (antibody, human IgG1, V domains shown)
VH: EVQLVESGGGLVQPGGSLRLSCAASGFTFSSYAMSWVRQAPGKGLEWVGAISAPGSSTYYADSVKGRFTISRDNSKNTLYLQMNSLRAEDTAVYYCARYYRYAPYRSLGMDVWGQGTLVTVSS
VL: DIQMTQSPSSLSASVGDRVTITCRASQGISSYLAWYQQKPGKAPKLLIYAASSLQSGVPSRFSGSGSGTDFTLTISSLQPEDFATYYCQQYYSYPFTFGQGTKVEIKR
notes: also called P6C.42.57
Consider B4, for which, in assay [1], the affinity, expressed as Kd, was 5.42 nM; the koff amounted to 0.000163 s⁻¹; the kon is 30100 M⁻¹ s⁻¹.

B5: YW629.51.13 (antibody, human IgG1, V domains shown)
VH: EVQLVESGGGLVQPGGSLRLSCAASGFTFSSYAMHWVRQAPGKGLEWVSRISSNGGSTYYADSVKGRFTISRDNSKNTLYLQMNSLRAEDTAVYYCARWIPQSYPFRSYKSGFDYWGQGTLVTVSS
VL: DIQMTQSPSSLSASVGDRVTITCRASQGISSYLAWYQQKPGKAPKLLIYDASSLESGVPSRFSGSGSGTDFTLTISSLQPEDFATYYCQQYYSYPFTFGQGTKVEIKR
notes: also called P6C.51.13
In assay [1], B5 registered a Kd of 1.13 nM, a koff of 0.000369 s⁻¹ and a kon of 327000 M⁻¹ s⁻¹.

B6: YW629.42.65 (antibody, human IgG1, V domains shown)
VH: EVQLVESGGGLVQPGGSLRLSCAASGFTFSSYAMSWVRQAPGKGLEWVGGISSPGSSTYYADSVKGRFTISRDNSKNTLYLQMNSLRAEDTAVYYCARYYRYAPYRSLGMDVWGQGTLVTVSS
VL: DIQMTQSPSSLSASVGDRVTITCRASQGISSYLAWYQQKPGKAPKLLIYAASSLQSGVPSRFSGSGSGTDFTLTISSLQPEDFATYYCQQYYLYPFTFGQGTKVEIKR
notes: also called P6C.42.65
As for B6, in assay [1], the Kd came to 2.54 nM, the koff was determined as 9.63e-05 s⁻¹ and the kon came to 37900 M⁻¹ s⁻¹.

B7: YW629.51.77 (antibody, human IgG1, V domains shown)
VH: EVQLVESGGGLVQPGGSLRLSCAASGFTFSSYAMHWVRQAPGKGLEWVSRISSNGGSTYYADSVKGRFTISRDNSKNTLYLQMNSLRAEDTAVYYCARWIPQSYPFASYKSGFDYWGQGTLVTVSS
VL: DIQMTQSPSSLSASVGDRVTITCRASQVIYGYLAWYQQKPGKAPKLLIYDASTRESGVPSRFSGSGSGTDFTLTISSLQPEDFATYYCQQYYSYPFTFGQGTKVEIKR
notes: also called P6C.51.77
In assay [1], B7 had a Kd of 0.438 nM, a koff of 0.000165 s⁻¹ and a kon of 376000 M⁻¹ s⁻¹.

B8: YW629.51.61 (antibody, human IgG1, V domains shown)
VH: EVQLVESGGGLVQPGGSLRLSCAASGFTFSSYAMHWVRQAPGKGLEWVSRISSNGGSTYYADSVKGRFTISRDNSKNTLYLQMNSLRAEDTAVYYCARWIPQSYPFASYKSGFDYWGQGTLVTVSS
VL: DIQMTQSPSSLSASVGDRVTITCRASQVMGYYLAWYQQKPGKAPKLLIYDASSLESGVPSRFSGSGSGTDFTLTISSLQPEDFATYYCQQYYSYPFTFGQGTKVEIKR
notes: also called P6C.51.61; PC6.51.61
In assay [1], B8 had a Kd of 0.47 nM, an off-rate (koff) of 0.000115 s⁻¹ and a kon of 244000 M⁻¹ s⁻¹. Also, in assay [2], the “TOPFlash luciferase reporter, Norrin as ligand (cells transfected with LRP5 and FZD-4)” value was 3 fold; the “TOPFlash luciferase reporter, Wnt7b as ligand (cells transfected with LRP5 and FZD-4)” value stood at 2 fold.

B9: YW629.42.58 (antibody, human IgG1, V domains shown)
VH: EVQLVESGGGLVQPGGSLRLSCAASGFTFSSYAMSWVRQAPGKGLEWVGAISSPGWSTYYADSVKGRFTISRDNSKNTLYLQMNSLRAEDTAVYYCARYYRYAPYRSLGMDVWGQGTLVTVSS
VL: DIQMTQSPSSLSASVGDRVTITCRASQGISSYLAWYQQKPGKAPKLLIYAASSLQSGVPSRFSGSGSGTDFTLTISSLQPEDFATYYCQQYYSYPFTFGQGTKVEIKR
notes: also called P6C.42.58
Take B9: in assay [1], the Kd was 2.78 nM, the koff stood at 8.69e-05 s⁻¹ and the kon came to 31300 M⁻¹ s⁻¹.

B10: YW629.51.78 (antibody, human IgG1, V domains shown)
VH: EVQLVESGGGLVQPGGSLRLSCAASGFTFSSYAMHWVRQAPGKGLEWVSRISSNGGSTYYADSVKGRFTISRDNSKNTLYLQMNSLRAEDTAVYYCARWIPQSYPFASYKSGFDYWGQGTLVTVSS
VL: DIQMTQSPSSLSASVGDRVTITCRASQGIFYYLAWYQQKPGKAPKLLIYDASTLESGVPSRFSGSGSGTDFTLTISSLQPEDFATYYCQQYYSYPFTFGQGTKVEIKR
notes: also called P6C.51.78
In assay [1], B10 displayed a Kd of 0.192 nM, a koff of 7.24e-05 s⁻¹ and a kon of 378000 M⁻¹ s⁻¹.

B11: YW629.51.63 (antibody, human IgG1, V domains shown)
VH: EVQLVESGGGLVQPGGSLRLSCAASGFTFSSYAMHWVRQAPGKGLEWVSRISSNGGSTYYADSVKGRFTISRDNSKNTLYLQMNSLRAEDTAVYYCARWIPQSYPFASYKSGFDYWGQGTLVTVSS
VL: DIQMTQSPSSLSASVGDRVTITCRASQSIYYYLAWYQQKPGKAPKLLIYDASSLESGVPSRFSGSGSGTDFTLTISSLQPEDFATYYCQQYYSYPFTFGQGTKVEIKR
notes: also called P6C.51.63
In assay [1], B11 returned a Kd of 0.592 nM, a koff of 0.000199 s⁻¹ and a kon of 337000 M⁻¹ s⁻¹.
